In publication PMC3105425 (Nucleic Acids Research, 2011):

Biological target: ribosomal protein L2 (E. coli, UniProt P60422 1-273)
Assay: ELISA

Row | binding result | fold reduction of the interaction against wild-type DnaA [fold] | Binder
1 | binds |  | DnaA protein (natural protein) MSLSLWQQCLARLQDELPATEFSMWIRPLQAELSDNTLALYAPNRFVLDWVRDKYLNNINGLLTSFCGADAPQLRFEVGTKPVTQTPQAAVTSNVAAPAQVAQTQPQRAAPSTRSGWDNVPAPAEPTYRSNVNVKHTFDNFVEGKSNQLARAAARQVADNPGGAYNPLFLYGGTGLGKTHLLHAVGNGIMARKPNAKVVYMHSERFVQDMVKALQNNAIEEFKRYYRSVDALLIDDIQFFANKERSQEEFFHTFNALLEGNQQIILTSDRYPKEINGVEDRLKSRFGWGLTVAIEPPELETRVAILMKKADENDIRLPGEVAFFIAKRLRSNVRELEGALNRVIANANFTGRAITIDFVREALRDLLALQEKLVTIDNIQKTVAEYYKIKVADLLSKRRSRSVARPRQMAMALAKELTNHSLPEIGDAFGGRDHTTVLHACRKIEQLREESHDIKEDFSNLIRTLSS
2 |  | ~4 | DnaAΔ129 lacking the N-terminal 129 residues (domain or fragment) SNVNVKHTFDNFVEGKSNQLARAAARQVADNPGGAYNPLFLYGGTGLGKTHLLHAVGNGIMARKPNAKVVYMHSERFVQDMVKALQNNAIEEFKRYYRSVDALLIDDIQFFANKERSQEEFFHTFNALLEGNQQIILTSDRYPKEINGVEDRLKSRFGWGLTVAIEPPELETRVAILMKKADENDIRLPGEVAFFIAKRLRSNVRELEGALNRVIANANFTGRAITIDFVREALRDLLALQEKLVTIDNIQKTVAEYYKIKVADLLSKRRSRSVARPRQMAMALAKELTNHSLPEIGDAFGGRDHTTVLHACRKIEQLREESHDIKEDFSNLIRTLSS
3 | binds |  | DnaAΔ220-294 lacking residues 220–294 (natural protein) MSLSLWQQCLARLQDELPATEFSMWIRPLQAELSDNTLALYAPNRFVLDWVRDKYLNNINGLLTSFCGADAPQLRFEVGTKPVTQTPQAAVTSNVAAPAQVAQTQPQRAAPSTRSGWDNVPAPAEPTYRSNVNVKHTFDNFVEGKSNQLARAAARQVADNPGGAYNPLFLYGGTGLGKTHLLHAVGNGIMARKPNAKVVYMHSERFVQDMVKALQNNAIEPPELETRVAILMKKADENDIRLPGEVAFFIAKRLRSNVRELEGALNRVIANANFTGRAITIDFVREALRDLLALQEKLVTIDNIQKTVAEYYKIKVADLLSKRRSRSVARPRQMAMALAKELTNHSLPEIGDAFGGRDHTTVLHACRKIEQLREESHDIKEDFSNLIRTLSS
